For orientation: EC50 means the concentration giving half of the maximal effect.

Test [1] has as its target T1, human BTLA on cells (stably transfected 293c18 cells; human peripheral blood T and B cells) (human, UniProt Q7Z6A9 31-289).
T1 construct: whole, on cells; the cells are named under assay; also called cell surface BTLA; full-length human BTLA
In words: flow cytometry, DyLight 650-labeled 6G3 IgG4 on human peripheral blood CD20+ B cells. As for the experimental part: PBMCs were washed and incubated at 2×10⁷ cells/ml in FACS buffer (PBS, 1% BSA, 0.02% sodium azide) with Human BD Fc Block (2.5 μg/1×10⁶ cells, BD Biosciences) and LIVE/DEAD® Fixable Yellow Dead Cell Stain (30 μl, ThermoFisher Scientific) for 10 minutes on ice. Cells were washed once in FACS buffer, resuspended in FACS buffer at 1×10⁷ cells/ml and the following phenotyping antibodies added: Alexa Fluor 488-anti-human CD3E clone SK7, Brilliant Violet 421-anti-human CD4 clone OKT4, Brilliant Violet 785-anti-human CD8 clone SK1, and Brilliant Violet 570-anti-human CD20 clone 2H7 (50 μl each; all from BioLegend, Inc.). […] Samples were washed twice in FACS buffer, resuspended in 150 μl/well FACS buffer, and analyzed for fluorescence on a NovoCyte Flow Cytometer (ACEA Biosciences, Inc.). Data were analyzed using NovoExpress Software (ACEA Biosciences, Inc.). Median fluorescence intensities of anti-BTLA or isotype staining on gated CD4⁺ T cells (FIG. 4), CD8⁺ T cells (FIG. 4), or CD20⁺ B cells (FIG. 4) were graphed and curves fit with log(agonist) vs. response (three parameters) least squares fit for EC₅₀ calculation in GraphPad Prism (GraphPad Software, Inc.).
For orientation: Flow cytometry measures light scatter and fluorescence of single cells or particles in a stream.

In test [2] the target is T2, cynomolgus monkey BTLA on cells (stably transfected 293c18 clone 1G5); cynomolgus peripheral blood T and B … (cynomolgus monkey, UniProt A0A2K5W7M7 31-289).
T2 construct: whole, on cells; also called cynomolgus monkey BTLA 293c18 cells
T2 sequence: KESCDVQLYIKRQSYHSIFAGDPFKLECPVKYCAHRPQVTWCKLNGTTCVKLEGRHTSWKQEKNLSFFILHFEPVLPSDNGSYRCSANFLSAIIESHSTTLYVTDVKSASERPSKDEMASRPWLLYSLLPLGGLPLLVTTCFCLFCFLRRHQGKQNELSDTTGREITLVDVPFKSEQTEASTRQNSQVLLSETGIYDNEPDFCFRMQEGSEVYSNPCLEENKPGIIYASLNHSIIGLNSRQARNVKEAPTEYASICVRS
The test can be described thus: flow cytometry on cynomolgus monkey BTLA 293c18 cells, anti-human kappa-PE detection; both lots (APE10840.03 and APE10840.04); cynomolgus BTLA 293c18 cells. On the procedure:
293c18 cell clone 1E4 stably expressing human BTLA construct or clone 1G5 stably expressing cynomolgus monkey BTLA were harvested with Accutase solution (Millipore Sigma/Sigma-Aldrich) and washed once with Phosphate-Buffered Saline, 1% BSA. 293c18 cynomolgus monkey BTLA cells were loaded with the lipophilic carbocyanine dye, DiD (2 μM, 1,1′-dioctadecyl-3,3,3′,3′-tetramenthylindodicarbocyanine; ThermoFisher Scientific) by rocking gently for 10 minutes at room temperature. DiD-stained cells were washed in PBS, 1% BSA and equal amounts of human BTLA 293c18 cells and cynomolgus monkey BTLA 293c18-DiD-stained cells were mixed. Cells (2×10⁵ total cells/sample) were incubated with the indicated concentrations of purified 6G3 IgG4 (two production lots, APE10840.03 and APE10840.04 (H Chain SEQ ID NO: 144, L Chain SEQ ID NO: 174)) or human IgG4 isotype control antibody specific for hen egg lysozyme with gentle shaking for 10 minutes at 4° C. in FACS buffer (PBS, 1% BSA, 0.02% sodium azide). […] Cells were washed and resuspended in FACS buffer and analyzed for fluorescence on a BD FACSArray (BD Biosciences). DiD stained cells expressing cynomolgus monkey BTLA (FIG. 3) were analyzed for median fluorescence intensity (MFI) separately from cells expressing human BTLA (FIG. 3). […]

B1: 6G3 IgG4 anti-BTLA antibody (APE10840 / APE12839 / APE13308) (antibody, V domains shown)
VH: QVQLVQSGAEVKKPGSSVKVSCKASGYVFSTSWMNWVRQAPGQGLEWMGRIYPGDADTNYVGKFKGRVTITADKSTTTAYMELSSLRSEDTAVYFCAKSGTFNFGNYRWYFDVWGKGTTVTVSS
VL: AIQLTQSPSSLSASVGDRVTITCRVSENIYSHLAWYQQKPGKAPKLLIYAATNLALGVPSRFSGSGSGTDYTLTISSLQPEDFATYYCQLFWGPPLTFGGGTKVEIKR
notes: Humanized antibody from a mouse hybridoma, tested as human IgG4 (detected with anti-human kappa); Some assays used labelled lots (DyLight 650, AF647, biotin, DyL488); also called 6G3 antibody; APE10840.03
As for B1, the EC50 in test [1] is approximately 0.5 nM; in test [2], approximately 2.3 nM.
